Assay results from patent US20220002700A1, “COMPUTATIONALLY-OPTIMIZED ACE2 PEPTIDES FOR COMPETITIVE INTERCEPTION OF SARS-CoV-2” (priority 2020, published 2022).

Test system: viruses pseudotyped with the SARS-CoV-2 S protein
Type: cell-based

B1: 23-mer (A2N)-CHIPΔTPR fusion (protein)
chain: QNKTFLDKFNHEAEDLFYQSSLAMRLNFGDDIPSALRIAKKKRWNSIEERRIHQESELHSYLSRLIAAERERELEECQRNHEGDEDDSHVRAQQACIEAKHDKYMADMDELFSQVDEKRKKRDIPDYLCGKISFELMREPCITPSGITYDRKDIEEHLQRVGHFDPVTRSPLTQEQLIPNLAMKEVIDAFISENGWVEDY
reduction of the infection rate of the pseudovirus: ~60%
